The supplement of paper PMC12855868

B1: library; numbered along this chain (parent)
chain: MAAAGGARLLRAASAVLGGPAGRWLHHAGSRAGSSGLLRNRGPGGSAEASRSLSVSARARSSSEDKITVHFINRDGETLTTKGKVGDSLLDVVVENNLDIDGFGACEGTLACSTCHLIFEDHIYEKLDAITDEENDMLDLAYGLTDRSRLGCQICLTKSMDNMTVRVPETVADARQSIDVGKTS

Variants of: B1
Assay: scaled log2 fold change in cell abundance, elesclomol vs control (0 = silent mean, 1 = nonsense mean) (scaled log2 ratio); higher = higher viability under elesclomol (loss of FDX1 cuproptosis function)
Conditions: glucose 10 mM
Method: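 Deep mutational scan of full-length human FDX1: a pooled saturation-mutagenesis ORF library (every residue 2-184 mutated to all 19 amino acids plus stop, and silent codons where available) was expressed by lentivirus in FDX1-knockout ABC1 (14 days) or HEK293T (11 days) cells grown with elesclomol (ES) or DMSO control. Variant abundance came from ORF sequencing. The log2 fold change (ES vs control, mean of duplicates) was centred on the silent-variant mean (0) and scaled to the nonsense-variant mean (1). Higher values mean greater viability under ES, i.e. loss of FDX1 function in cuproptosis.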

[1] = with ABC1 FDX1 KO, elesclomol 5 nM, 14 days
[2] = with HEK293T FDX1 KO, elesclomol 40 nM, 11 days
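Also: variant abundance is its share of total variant reads in each endpoint sample, from next-generation sequencing of the integrated ORF PCR-amplified out of genomic DNA.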

| Variant | scaled log2 fold change [1] | scaled log2 fold change [2] |
| --- | --- | --- |
| V55W | 0.0864 | -0.549 |
| V55Q | 0.177 | -0.526 |
| V55S | 0.162 | -0.104 |
| V55T | 0.178 | -0.356 |
| V55Y | 0.0351 | – |
| V55R | 0.114 | 0.865 |
| A59L | -0.434 | 0.562 |
| A59T | 0.332 | -0.0311 |
| A59R | -0.761 | -0.456 |
| A59I | 0.202 | 0.473 |
| A59N | -0.132 | 0.117 |
| A59V | -0.507 | 0.0474 |
| A59G | -0.424 | -0.916 |
| A59F | 0.319 | -0.721 |
| A59S | 0.217 | 0.732 |
| A59D | -0.0282 | 0.274 |
| A59Y | 0.0878 | -0.306 |
| A59K | -0.0687 | -0.733 |
| A59C | -0.665 | 0.732 |
| A59P | -0.0792 | – |
| A59M | -0.0959 | -0.108 |
| A59E | -0.245 | 0.171 |
| A59W | 0.216 | 0.283 |
| A59H | -0.614 | – |
| A59Q | 0.564 | -0.702 |

| Variant | scaled log2 fold change [1] | scaled log2 fold change [2] |
| --- | --- | --- |
| I67S | 0.0219 | 0.253 |
| I67D | 1.08 | 1.13 |
| I67P | 0.222 | -0.205 |
| I67R | 0.504 | 0.363 |
| I67E | 0.963 | 0.881 |
| I67N | 0.44 | 0.681 |
| I67Y | 0.135 | -0.731 |
| I67C | 0.2 | -0.121 |
| I67A | 0.473 | 0.322 |
| I67L | 0.113 | 0.514 |
| I67T | 0.0745 | 0.365 |
| I67H | 0.608 | 0.601 |
| I67V | -0.37 | 0.832 |
| I67Q | 0.436 | 0.135 |
| I67K | 0.691 | 0.44 |
| I67M | 0.35 | 0.129 |
| I67G | 0.747 | 0.579 |
| I67F | 0.0413 | -0.46 |
| I67W | 0.658 | -0.0492 |
| S56R | 0.43 | – |
| S56Y | -0.541 | 0.934 |
| S56W | -0.00445 | 0.0272 |
| S56T | 0.0393 | 1.19 |
| S56E | 0.234 | 0.0723 |
| S56C | -0.222 | -0.162 |

| Variant | scaled log2 fold change [1] | scaled log2 fold change [2] |
| --- | --- | --- |
| S56F | 0.177 | – |
| S56P | 0.19 | – |
| S56K | -0.052 | 0.357 |
| S56N | 0.0549 | 1.09 |
| S56A | 0.574 | – |
| S56G | -1.11 | 0.888 |
| S56V | 0.301 | -0.368 |
| S56D | -0.745 | 0.383 |
| S56L | 0.557 | 1.06 |
| S56I | -0.125 | -0.305 |
| S56H | 0.238 | 0.979 |
| S56Q | -0.214 | 0.782 |
| S56M | -0.109 | 0.0191 |
| S61Y | 0.603 | 1.51 |
| S61W | -0.113 | 0.846 |
| S61G | -0.405 | – |
| S61R | -0.524 | – |
| S61I | -0.527 | – |
| S61M | 0.184 | – |
| S61E | 0.468 | – |
| S61Q | 0.577 | – |
| S61V | 0.78 | – |
| S61F | -0.102 | – |
| S61K | -0.0816 | – |
| S61D | 1.01 | 1.93 |

| Variant | scaled log2 fold change [1] | scaled log2 fold change [2] |
| --- | --- | --- |
| S61N | -0.737 | -0.556 |
| R58T | -0.167 | -0.0694 |
| R58H | 0.4 | -0.194 |
| R58P | 0.228 | 0.00503 |
| R58F | -0.105 | -0.229 |
| R58G | -0.484 | 0.743 |
| R58V | 0.434 | 1.47 |
| R58A | 0.173 | 0.434 |
| R58N | -0.417 | -0.0662 |
| R58C | 0.0658 | -0.099 |
| R58K | 0.151 | -0.231 |
| R58Q | 0.0532 | -0.891 |
| R58L | -0.211 | 0.174 |
| R58D | -0.139 | -0.303 |
| R58W | 0.133 | 0.3 |
| R58E | -0.288 | -0.142 |
| R58S | 0.12 | -0.815 |
| R58Y | -0.339 | -0.258 |
| R58I | -0.339 | 0.608 |
| R58M | 0.306 | -0.781 |
| A57Y | -0.233 | 0.129 |
| A57W | -0.231 | 0.0227 |
| A57S | 0.247 | 0.0851 |
| A57E | -0.0705 | -0.933 |
| A57G | -0.0446 | 1.2 |

| Variant | scaled log2 fold change [1] | scaled log2 fold change [2] |
| --- | --- | --- |
| A57D | 0.102 | -0.382 |
| A57M | -0.0569 | -0.0232 |
| A57T | 0.0138 | -0.39 |
| A57V | -0.164 | 0.356 |
| A57N | 0.029 | 0.245 |
| A57L | -0.263 | 0.149 |
| A57Q | 0.12 | -0.354 |
| A57R | 0.224 | 0.591 |
| A57H | 0.158 | -0.799 |
| A57F | -0.681 | -0.202 |
| A57I | 0.296 | – |
| A57K | 0.162 | -1.1 |
| A57C | 0.479 | – |
| K66G | 0.301 | 0.245 |
| K66L | -0.00608 | -0.145 |
| K66N | -0.167 | 0.199 |
| K66A | -0.0856 | 0.00324 |
| K66Q | -0.382 | 0.00416 |
| K66D | -0.097 | – |
| K66C | -0.0989 | -0.0245 |
| K66I | -0.298 | -0.755 |
| K66H | 0.0524 | -0.795 |
